The assay has as its target T1, His-tagged BRD4 (1-470, BDs domain) (UniProt O60885 1-470).
T1 construct: BRD4, BDs domain (BD1 + BD2), aa 1-470; also called His-BRD4 (BD1 + BD2); pET-28a-His-BRD4 (1-470)
Nature of the assay: pull-down; GST pull-down; purified GST-GLTSCR1 (1161-1361) incubated with purified His-tagged BRD4 fragment at 4 °C overnight; beads washed three times in lysis buffer (0.5% Triton-X100, 50 mM NaH2PO4, 300 mM NaCl); immunoblot. To be noted: both partners purified. Background: A western blot detects proteins with antibodies after separation by electrophoresis.

B1: GST-GLTSCR1 (aa 1161-1361), BRD4 binding domain (BB domain) (domain or fragment, human, UniProt Q9NZM4 1161-1361, looked up)
chain: EESRRVSPSAEMVMIDRMFIQEEKTTLALDKQLAKEKPDEYVSSSRSLGLPIAASSEGHRLPGHGPLSSSAPGASTQPPPHLPTKLVIRHGGAGGSPSVTWARASSSLSSSSSSSSAASSLDADEDGPMPSRNRPPIKTYEARSRIGLKLKIKQEAGLSKVVHNTALDPVHQPPPPPATLKVAEPPPRPPPPPPPTGQMNG
notes: also called GST-tagged GLTSCR1 BB domain; source: E. coli BL21, purified (glutathione agarose beads)
As for B1, the binding result was “binds”.
